Measured values: publication PMC7960543 (The Journal of Biological Chemistry, 2021)
Values belong to the binder of their own block, whether it stands above or below them. Bridge positions count the residues as written; N and C are the ends. Ends that are not written are not given here.

B3: recombinant soluble CD40L (residues 118–261) with no N-terminal KGD motif, wild type (ligand)
chain: QNPQIAAHVISEASSKTTSVLQWAEKGYYTMSNNLVTLENGKQLTVKRQGLYYIYAQVTFCSNREASSQAPFIASLCLKSPGRFERILLRAANTHSSAKPCGQQSIHLGGVFELQPGASVFVNVTDPSQVSHGTGFTSFGLLKL
notes: CD40L (CD40 ligand), residues 118–261, without the KGD motif (residues 115–117); the His tag is known from detection with anti-His antibody; also called sCD40L; WT sCD40L; source: recombinant, synthesized as described (13)
B6: CD40 fragment (residues 21–144) fused to GST (domain or fragment, UniProt P25942 21-144, looked up)
chain: EPPTACREKQYLINSQCCSLCQPGQKLVSDCTEFTETECLPCGESEFLDTWNRETHCHQHKYCDPNLGLRVQQKGTSETDTICTCEEGWHCTSEACESCVLHRSCSPGFGVKQIATGVSDTICE
notes: also called CD40 fused to GST

Columns and labels:
[1] = molecular target: T1, recombinant soluble integrin αvβ3, P06756;P05106; assay: ELISA; settings: chain shown with the change; immobilized CD40L mutants 10 μg/ml; soluble αvβ3 5 μg/ml in HEPES-Tyrodes buffer, 1 mM Mn2+; detection with anti-β3 (AV10); parent: est. 0.48; read off a plot
T1 chain 1: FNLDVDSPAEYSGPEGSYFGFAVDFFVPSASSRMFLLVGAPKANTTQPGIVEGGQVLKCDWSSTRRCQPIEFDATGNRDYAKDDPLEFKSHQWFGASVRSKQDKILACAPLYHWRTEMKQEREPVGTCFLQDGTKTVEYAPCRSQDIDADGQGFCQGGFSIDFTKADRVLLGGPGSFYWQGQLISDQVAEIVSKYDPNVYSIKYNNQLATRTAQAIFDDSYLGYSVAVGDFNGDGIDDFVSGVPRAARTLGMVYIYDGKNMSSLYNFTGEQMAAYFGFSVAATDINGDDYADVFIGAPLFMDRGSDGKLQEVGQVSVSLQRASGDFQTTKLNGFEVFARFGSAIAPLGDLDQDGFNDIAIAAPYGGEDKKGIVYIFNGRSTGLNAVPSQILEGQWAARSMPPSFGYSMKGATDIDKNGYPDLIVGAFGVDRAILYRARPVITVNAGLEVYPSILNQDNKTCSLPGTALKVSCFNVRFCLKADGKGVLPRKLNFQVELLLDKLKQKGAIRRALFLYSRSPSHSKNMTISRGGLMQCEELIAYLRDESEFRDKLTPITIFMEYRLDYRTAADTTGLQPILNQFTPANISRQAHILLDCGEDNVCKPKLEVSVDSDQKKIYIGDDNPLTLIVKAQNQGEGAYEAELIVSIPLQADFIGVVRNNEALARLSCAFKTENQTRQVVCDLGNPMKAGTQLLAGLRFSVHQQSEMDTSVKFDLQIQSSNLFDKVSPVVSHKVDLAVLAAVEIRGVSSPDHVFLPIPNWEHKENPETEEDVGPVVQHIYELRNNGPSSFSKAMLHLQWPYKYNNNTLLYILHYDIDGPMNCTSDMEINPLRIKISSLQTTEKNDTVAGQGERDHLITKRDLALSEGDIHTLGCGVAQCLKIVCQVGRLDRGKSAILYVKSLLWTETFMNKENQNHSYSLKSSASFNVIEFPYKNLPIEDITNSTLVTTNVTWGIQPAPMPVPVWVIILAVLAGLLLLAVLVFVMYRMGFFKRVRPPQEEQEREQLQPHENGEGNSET
T1 chain 2: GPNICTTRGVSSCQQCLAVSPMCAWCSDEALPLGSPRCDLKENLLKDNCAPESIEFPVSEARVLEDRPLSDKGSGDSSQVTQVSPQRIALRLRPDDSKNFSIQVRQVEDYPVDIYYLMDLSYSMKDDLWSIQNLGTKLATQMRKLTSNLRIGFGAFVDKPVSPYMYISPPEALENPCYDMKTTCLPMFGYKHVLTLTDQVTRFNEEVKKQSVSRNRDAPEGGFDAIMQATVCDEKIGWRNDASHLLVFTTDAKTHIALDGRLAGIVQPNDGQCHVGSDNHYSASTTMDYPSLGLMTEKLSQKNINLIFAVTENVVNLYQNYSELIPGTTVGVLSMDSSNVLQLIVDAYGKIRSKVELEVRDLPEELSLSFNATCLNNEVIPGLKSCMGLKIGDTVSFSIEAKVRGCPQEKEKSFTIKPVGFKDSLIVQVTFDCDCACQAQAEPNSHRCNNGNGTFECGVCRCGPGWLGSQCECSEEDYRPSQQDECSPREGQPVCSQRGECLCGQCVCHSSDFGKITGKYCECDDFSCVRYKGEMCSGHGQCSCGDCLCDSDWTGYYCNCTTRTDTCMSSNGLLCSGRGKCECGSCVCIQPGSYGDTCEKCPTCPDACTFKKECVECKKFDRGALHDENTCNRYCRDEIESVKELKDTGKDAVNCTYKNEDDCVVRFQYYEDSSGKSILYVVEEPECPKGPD

[2] = molecular target: B6; assay: ELISA; CD40 fragment (21–144) fused to GST coated on wells (100 μg/ml in PBS); sCD40L (WT or mutant) incubated 1 h; bound sCD40L measured with HRP-conjugated anti-His; settings: both partners purified
[3] = molecular target: T2, sCD40L (residues 118–261) G144E HIGM1 mutant (UniProt P29965 118-261, G144E); assay: as above; settings: both partners purified
T2 construct: CD40L residues 118–261; HIGM1 mutation; source: recombinant, site-directed mutagenesis of WT sCD40L, synthesized as for WT
T2 sequence (looked up): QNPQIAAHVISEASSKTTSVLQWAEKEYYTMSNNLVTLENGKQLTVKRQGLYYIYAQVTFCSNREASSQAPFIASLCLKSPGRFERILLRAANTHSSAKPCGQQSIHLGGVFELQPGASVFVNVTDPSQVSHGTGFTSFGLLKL

[4] = molecular target: T3, sCD40L (residues 118–261) K143T HIGM1 mutant (UniProt P29965 118-261, K143T); assay: as above; settings: both partners purified
T3 construct: CD40L residues 118–261; HIGM1 mutation; source: recombinant, site-directed mutagenesis of WT sCD40L, synthesized as for WT
T3 sequence (looked up): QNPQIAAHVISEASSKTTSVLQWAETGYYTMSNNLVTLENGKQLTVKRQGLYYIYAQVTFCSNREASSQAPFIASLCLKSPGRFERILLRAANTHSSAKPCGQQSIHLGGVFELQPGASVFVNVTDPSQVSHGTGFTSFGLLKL

[5] = molecular target: T4, sCD40L (residues 118–261) S128R/E129G HIGM1 mutant (UniProt P29965 118-261, S128R | E129G); assay: as above; settings: both partners purified
T4 construct: CD40L residues 118–261; HIGM1 (hyper-IgM syndrome type 1) mutation; source: recombinant, site-directed mutagenesis of WT sCD40L, synthesized as for WT
T4 sequence (looked up): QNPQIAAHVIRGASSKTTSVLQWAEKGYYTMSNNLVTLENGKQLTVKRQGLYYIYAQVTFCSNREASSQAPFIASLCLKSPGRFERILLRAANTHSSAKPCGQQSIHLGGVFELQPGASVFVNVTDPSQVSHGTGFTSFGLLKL

[6] = molecular target: T5, sCD40L (residues 118–261) L155P HIGM1 mutant (UniProt P29965 118-261, L155P); assay: as above; settings: both partners purified
T5 construct: CD40L residues 118–261; HIGM1 mutation; source: recombinant, site-directed mutagenesis of WT sCD40L, synthesized as for WT
T5 sequence (looked up): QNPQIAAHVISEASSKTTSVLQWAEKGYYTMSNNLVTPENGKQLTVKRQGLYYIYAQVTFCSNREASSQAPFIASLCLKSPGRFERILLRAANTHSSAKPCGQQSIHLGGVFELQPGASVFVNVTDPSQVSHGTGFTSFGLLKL

[7] = molecular target: B3; assay: ELISA; CD40L immobilized; cyclic site 2 peptides of β1 or β3 fused to GST in solution; bound GST measured with HRP-conjugated anti-GST; settings: both partners purified

B2: recombinant soluble CD40L (residues 118–261) with no N-terminal KGD motif, wild type G144E (protein)
chain: QNPQIAAHVISEASSKTTSVLQWAEKEYYTMSNNLVTLENGKQLTVKRQGLYYIYAQVTFCSNREASSQAPFIASLCLKSPGRFERILLRAANTHSSAKPCGQQSIHLGGVFELQPGASVFVNVTDPSQVSHGTGFTSFGLLKL
response [1]: 0.4 OD450

Binder: B3
binding result [2]: binds

Binder: B6
binding result [3]: binds
binding result [4]: binds
binding result [5]: binds
binding result [6]: binds

B7: disulfide-linked cyclic site 2 peptide of integrin β1 (C268–C295) fused to GST (peptide)
peptide: CKLGGIVLPNDGQSHLENNMYTMSHYYC
modifications: disulfide 1-28; also: fused to GST
notes: integrin β1 residues 268–295 (site 2); Cloned in pGEX-2T6His; also called the corresponding β1 peptide; 28-mer cyclic β1 peptide
binding result [7]: binds

B8: disulfide-linked cyclic site 2 peptide of integrin β3 (C260–C288) fused to GST (peptide)
peptide: CRLAGIVQPNDGQSHVGSDNHYSASTTMC
modifications: disulfide 1-29; also: fused to GST
notes: also called cyclic site 2 peptide from β3; 29-mer cyclic β3 peptide
binding result [7]: binds

Now from value to binder:

response [1]: 0.046 OD450
B1: recombinant soluble CD40L (residues 118–261) with no N-terminal KGD motif, wild type S128R; E129G (protein)
chain: QNPQIAAHVIRGASSKTTSVLQWAEKGYYTMSNNLVTLENGKQLTVKRQGLYYIYAQVTFCSNREASSQAPFIASLCLKSPGRFERILLRAANTHSSAKPCGQQSIHLGGVFELQPGASVFVNVTDPSQVSHGTGFTSFGLLKL

response [1]: 0.042 OD450
B4: recombinant soluble CD40L (residues 118–261) with no N-terminal KGD motif, wild type L155P (protein)
chain: QNPQIAAHVISEASSKTTSVLQWAEKGYYTMSNNLVTPENGKQLTVKRQGLYYIYAQVTFCSNREASSQAPFIASLCLKSPGRFERILLRAANTHSSAKPCGQQSIHLGGVFELQPGASVFVNVTDPSQVSHGTGFTSFGLLKL

response [1]: 0.33 OD450
B5: recombinant soluble CD40L (residues 118–261) with no N-terminal KGD motif, wild type K143T (protein)
chain: QNPQIAAHVISEASSKTTSVLQWAETGYYTMSNNLVTLENGKQLTVKRQGLYYIYAQVTFCSNREASSQAPFIASLCLKSPGRFERILLRAANTHSSAKPCGQQSIHLGGVFELQPGASVFVNVTDPSQVSHGTGFTSFGLLKL
